We go through seven molecules from article PMC4313731 (Chemistry & biology, 2013).

In one series the target is PhnY (Sinorhizobium meliloti, UniProt Q92UV7). The experiment in a line: X-ray crystal structure of ternary complex with NAD+, […] Å. The class given is binding. As to conditions: NAD+ bound; active site, non-covalent.
Substrate in series [1]: O=CCCP(=O)(O)O
The experiment in a line: steady-state kinetics, NADP+ reduction monitored. The class given is biochemical, Streptococcus mutans. As to conditions: saturating NADP+, 50 mM HEPES pH 8.0, 5 mM DTT.

Substrate in series [2]: O=CC(O)COP(=O)(O)O
The experiment in a line: steady-state kinetics, NADP+ reduction monitored. The class given is biochemical, Streptococcus mutans. As to conditions: racemic G3P, saturating NADP+, 50 mM HEPES pH 8.0, 5 mM DTT.

Substrate in series [3]: O=CCP(=O)(O)O
The experiment in a line: steady-state kinetics, NAD+ reduction monitored. The format is biochemical, Sinorhizobium meliloti. As to conditions: saturating NAD+, 50 mM HEPES pH 7.5, 10 mM MgSO4, 30 °C.

Substrate in series [4]: O=CCCP(=O)(O)O
The experiment in a line: steady-state kinetics, NAD+ reduction monitored. The format is biochemical, Sinorhizobium meliloti. The conditions noted are these: 50 mM HEPES pH 7.5, 10 mM MgSO4, 30 °C.

Take `O=C(O)CP(=O)(O)O` [PnA]: on PhnY, the “X-ray crystal structure of ternary complex with NAD+, 2.07 Å” value was “cocrystal structure of PhnY in complex with NAD^+ and PnA shows clear and continuous density”.

B1: GAPDH (Streptococcus mutans UA159) (protein)
chain: MTKQYKNYVNGEWKLSENEIKIYEPASGAELGSVPAMSTEEVDYVYASAKKAQPAWRSLSYIERAAYLHKVADILMRDKEKIGAVLSKEVAKGYKSAVSEVVRTAEIINYAAEEGLRMEGEVLEGGSFEAASKKKIAVVRREPVGLVLAISPFNYPVNLAGSKIAPALIAGNVIAFKPPTQGSISGLLLAEAFAEAGLPAGVFNTITGRGSEIGDYIVEHQAVNFINFTGSTGIGERIGKMAGMRPIMLELGGKDSAIVLEDADLELTAKNIIAGAFGYSGQRCTAVKRVLVMESVADELVEKIREKVLALTIGNPEDDADITPLIDTKSADYVEGLINDANDKGAAALTEIKREGNLICPILFDKVTTDMRLAWEEPFGPVLPIIRVTSVEEAIEISNKSEYGLQASIFTNDFPRAFGIAEQLEVGTVHINNKTQRGTDNFPFLGAKKSGAGIQGVKYSIEAMTTVKSVVFDIK
Turning to B1, in series [1], the Km is on record as 1500 ± 300 µM and the turnover number (kcat) is 0.038 ± 0.022 s⁻¹. In addition, in series [2], the Km was 25 ± 7 µM and the turnover number (kcat) stood at 22 ± 2 s⁻¹.

B2: PhnY (Sinorhizobium meliloti 1021; R447A) (protein)
chain: MTNAEVTIAVRHEPMRIAGRLVDTDDRVEVRYPWNDTVVGTVPAGRAEHAREAFAIAAAYQPKLTRYERQKILLATAEALAARKEEISDVITLELGISKADSLYEVGRAFDVFTLAGQMCIRDDGEIFSCDLTPHGKARKIFTMREPLTAISAITPFNHPLNMVAHKVAPAIATNNCVVVKPTELTPMTALLLADILYEAGLPPEMLSVVTGWPADIGMEMITNPHVDLVTFTGSVPVGKLIAANAHYKRQVLELGGNDPLIILNDLSDDDLARAADLAVAGATKNSGQRCTAVKRILCQESVADRFVPLVLERAKRLRFGDPMDRSTDLGTVIHEKAAALFEERVMRAAEEGADILYHPGRSGALLPPIVVDRVPHQSDLVLEETFGPIIPIVRVPDDDDATITLSNSTAFGLSSGVCTNDYRRMQKYIAGLKVGTVNIWEVPGYAIEMSPFGGIKDSGNGYKEGVIEAMKSFTNVKTFSLPWP
As for B2, in series [3], the Km is 150 ± 20 µM and the catalytic constant (kcat) came to 0.076 ± 0.003 s⁻¹.

B3: PhnY (Sinorhizobium meliloti 1021; N158A) (protein)
chain: MTNAEVTIAVRHEPMRIAGRLVDTDDRVEVRYPWNDTVVGTVPAGRAEHAREAFAIAAAYQPKLTRYERQKILLATAEALAARKEEISDVITLELGISKADSLYEVGRAFDVFTLAGQMCIRDDGEIFSCDLTPHGKARKIFTMREPLTAISAITPFAHPLNMVAHKVAPAIATNNCVVVKPTELTPMTALLLADILYEAGLPPEMLSVVTGWPADIGMEMITNPHVDLVTFTGSVPVGKLIAANAHYKRQVLELGGNDPLIILNDLSDDDLARAADLAVAGATKNSGQRCTAVKRILCQESVADRFVPLVLERAKRLRFGDPMDRSTDLGTVIHEKAAALFEERVMRAAEEGADILYHPGRSGALLPPIVVDRVPHQSDLVLEETFGPIIPIVRVPDDDDATITLSNSTAFGLSSGVCTNDYRRMQKYIAGLKVGTVNIWEVPGYRIEMSPFGGIKDSGNGYKEGVIEAMKSFTNVKTFSLPWP
For B3, in series [3], the Km amounted to 29 ± 9 µM and the kcat was 0.010 ± 0.001 s⁻¹.

B4: PhnY (Sinorhizobium meliloti 1021; R108A) (protein)
chain: MTNAEVTIAVRHEPMRIAGRLVDTDDRVEVRYPWNDTVVGTVPAGRAEHAREAFAIAAAYQPKLTRYERQKILLATAEALAARKEEISDVITLELGISKADSLYEVGAAFDVFTLAGQMCIRDDGEIFSCDLTPHGKARKIFTMREPLTAISAITPFNHPLNMVAHKVAPAIATNNCVVVKPTELTPMTALLLADILYEAGLPPEMLSVVTGWPADIGMEMITNPHVDLVTFTGSVPVGKLIAANAHYKRQVLELGGNDPLIILNDLSDDDLARAADLAVAGATKNSGQRCTAVKRILCQESVADRFVPLVLERAKRLRFGDPMDRSTDLGTVIHEKAAALFEERVMRAAEEGADILYHPGRSGALLPPIVVDRVPHQSDLVLEETFGPIIPIVRVPDDDDATITLSNSTAFGLSSGVCTNDYRRMQKYIAGLKVGTVNIWEVPGYRIEMSPFGGIKDSGNGYKEGVIEAMKSFTNVKTFSLPWP
In the case of B4, in series [3], the Km is 9.7 ± 0.8 µM and the kcat was found to be 0.051 ± 0.001 s⁻¹.

B5: PhnY (Sinorhizobium meliloti 1021; R290A) (protein)
chain: MTNAEVTIAVRHEPMRIAGRLVDTDDRVEVRYPWNDTVVGTVPAGRAEHAREAFAIAAAYQPKLTRYERQKILLATAEALAARKEEISDVITLELGISKADSLYEVGRAFDVFTLAGQMCIRDDGEIFSCDLTPHGKARKIFTMREPLTAISAITPFNHPLNMVAHKVAPAIATNNCVVVKPTELTPMTALLLADILYEAGLPPEMLSVVTGWPADIGMEMITNPHVDLVTFTGSVPVGKLIAANAHYKRQVLELGGNDPLIILNDLSDDDLARAADLAVAGATKNSGQACTAVKRILCQESVADRFVPLVLERAKRLRFGDPMDRSTDLGTVIHEKAAALFEERVMRAAEEGADILYHPGRSGALLPPIVVDRVPHQSDLVLEETFGPIIPIVRVPDDDDATITLSNSTAFGLSSGVCTNDYRRMQKYIAGLKVGTVNIWEVPGYRIEMSPFGGIKDSGNGYKEGVIEAMKSFTNVKTFSLPWP
Regarding B5, in series [3], the Km worked out at 5.1 ± 0.6 µM and the kcat is 0.12 ± 0.003 s⁻¹.

B6: PhnY (Sinorhizobium meliloti 1021) (protein)
chain: MTNAEVTIAVRHEPMRIAGRLVDTDDRVEVRYPWNDTVVGTVPAGRAEHAREAFAIAAAYQPKLTRYERQKILLATAEALAARKEEISDVITLELGISKADSLYEVGRAFDVFTLAGQMCIRDDGEIFSCDLTPHGKARKIFTMREPLTAISAITPFNHPLNMVAHKVAPAIATNNCVVVKPTELTPMTALLLADILYEAGLPPEMLSVVTGWPADIGMEMITNPHVDLVTFTGSVPVGKLIAANAHYKRQVLELGGNDPLIILNDLSDDDLARAADLAVAGATKNSGQRCTAVKRILCQESVADRFVPLVLERAKRLRFGDPMDRSTDLGTVIHEKAAALFEERVMRAAEEGADILYHPGRSGALLPPIVVDRVPHQSDLVLEETFGPIIPIVRVPDDDDATITLSNSTAFGLSSGVCTNDYRRMQKYIAGLKVGTVNIWEVPGYRIEMSPFGGIKDSGNGYKEGVIEAMKSFTNVKTFSLPWP
For the molecule B6, in series [4], the Km came out at 3300 ± 100 µM and the kcat worked out at 1.5 ± 0.1 s⁻¹.
